Blank lines part the entries; values can stand above or below the molecule they belong to.
Legend:
[1] = biological target: TmelEST3 (Tuber melanosporum); assay: SEC; Superdex 200 HR10/30, 200 µg purified protein per run, 25 mM Tris-HCl pH 7.5, 150 mM NaCl, non-denaturing; size unchanged on β-mercaptoethanol supplementation
[2] = biological target: TmelEST2 (Tuber melanosporum); assay: as above
TmelEST3 [3] = test system: T1, TmelEST3; assay: pNP release at […] nm, Michaelis-Menten fit; format: biochemical, Tuber melanosporum; conditions: 25 mM Na-phosphate pH 7.0, 25 °C; Triton X-100 stabilized enzyme
T1 construct: signal peptide (first 18 residues) removed; N-terminal 6xHis cut with thrombin; E. coli BL21-CodonPlus(DE3)-RIL; ~35 kDa subunit, dimer (~65 kDa); salt-bridge residues Glu291, Arg304

TmelEST1 [4] = test system: T2, TmelEST1; assay: pNP release at […] nm, Michaelis-Menten fit; format: biochemical, Tuber melanosporum; conditions: 25 mM Na-phosphate pH 7.0, 25 °C; Triton X-100 stabilized enzyme
T2 construct: signal peptide (first 18 residues) removed; N-terminal 6xHis cut with thrombin; E. coli BL21-CodonPlus(DE3)-RIL; ~35 kDa subunit, dimer (~65 kDa); salt-bridge residues Glu284, Arg297; Arg242

TmelEST1 [5] = test system: T2, TmelEST1; assay: pH-shift assay with phenol red, A560; format: biochemical, Tuber melanosporum; conditions: 2 mM Tris-HCl pH 8, 25 °C; 0.25-5 mM substrate; read-out: apparent Km
[6] = biological target: TmelEST1 (Tuber melanosporum); assay: SEC; Superdex 200 HR10/30, 200 µg purified protein per run, 25 mM Tris-HCl pH 7.5, 150 mM NaCl, non-denaturing; size unchanged on β-mercaptoethanol supplementation
TmelEST3 [7] = test system: T1, TmelEST3; assay: pH-shift assay with phenol red, A560; format: biochemical, Tuber melanosporum; conditions: 2 mM Tris-HCl pH 8, 25 °C; 1-30 mM substrate; preliminary data; read-out: estimated Km
purified protein [8] = substrate: CCCCC(=O)Oc1ccc([N+](=O)[O-])cc1; assay: purified protein; format: biochemical, Tuber melanosporum; conditions: 25 mM Na-phosphate pH 7.0, 25 °C, Triton X-100 stabilized enzyme
purified protein [9] = substrate: CCCC(=O)Oc1ccc([N+](=O)[O-])cc1; assay: purified protein; format: biochemical, Tuber melanosporum; conditions: 25 mM Na-phosphate pH 7.0, 25 °C, Triton X-100 stabilized enzyme
[10] = substrate: COC(=O)c1ccccc1O; assay: pH-shift assay with phenol red, A560; format: biochemical, Tuber melanosporum; conditions: 2 mM Tris-HCl pH 8, 25 °C, 1-30 mM substrate, preliminary data

Molecule: TmelEST3 (enzyme)
stoichiometry N [1]: 2

Molecule: TmelEST2 (enzyme)
stoichiometry N [2]: 2

Molecule: CCOC(=O)/C=C/c1ccc(O)c(OC)c1 [ethyl ferulate]
Km (TmelEST1 [5]): 880 µM

Molecule: TmelEST1 (enzyme)
stoichiometry N [6]: 2

Molecule: COC(=O)Cc1c[nH]c2ccccc12 [indole-3-acetic methyl ester]
Km (TmelEST3 [7]): ~3350 µM

B1: TmelEST2 (Tuber melanosporum Mel28) (protein)
chain: ETPAPSCPVTNVTTPQLDPITQAYADAISSRPSLFAFPLPEIRDGYQSNVSDPSTEFTTKILSLPVGPTGNVTAYLYKPVSGEREKGKDLLPVIAYFHGGGWVFGGPKSYRGLITNLIRESGAAVFFVDYTLTPKVAYPVPNEQCYAAVQWLLEHGEKLGVDPTNMGFGGDSAGGELSSSVSLLSIKRKTPLPKFQVLIYPATDLACESATFKEFPNGPGLTTDEIRFAASLFTPDPKSRLEDVASPGRASDEDLAKFPETLIVVAEVDPIRQQGEDFGRRLQKLGVRAAIIRVLGTIHGFASIDVLSEAPGAKATIELIGYKFKKALH
notes: signal peptide (first 18 residues) removed; N-terminal 6xHis cut with thrombin; E. coli BL21-CodonPlus(DE3)-RIL; ~35 kDa subunit, dimer (~65 kDa); structure residues 34-347; triad Ser190, Asp287, His317
Km (purified protein [8]): 44 ± 7 µM | Vmax (purified protein [8]): 4790 µmol/min/mg | kcat (purified protein [8]): 2870 s⁻¹ | kcat/Km (purified protein [8]): 6.53e+07 M⁻¹ s⁻¹ | Km (purified protein [9]): 49 ± 8 µM | Vmax (purified protein [9]): 3840 µmol/min/mg | kcat (purified protein [9]): 2300 s⁻¹ | kcat/Km (purified protein [9]): 4.7e+07 M⁻¹ s⁻¹ | Km [10]: 750 µM | kcat [10]: 1 s⁻¹

Other lines, results leading:

Km (TmelEST3 [3]): 109 ± 6 µM | Km (TmelEST1 [4]): 140 ± 14 µM
Molecule: CCCC(=O)Oc1ccc([N+](=O)[O-])cc1 [C4, p-nitrophenyl-butyrate]

Km (TmelEST3 [3]): 137 ± 20 µM | Km (TmelEST1 [4]): 160 ± 20 µM
Molecule: CCCCC(=O)Oc1ccc([N+](=O)[O-])cc1 [C5, pNP-valerate]

— paper PMC5550427, “A family of archaea-like carboxylesterases preferentially expressed in the symbiotic phase of the mycorrhizal fungus Tuber melanosporum” (Scientific Reports, 2017)
